From patent US20170306038A1 (published 2017)
Positions count from the first letter of the chain named.

T1: human GITR on cells (human, UniProt Q9Y5U5 27-241)
T1 construct: also called hGITR; 293 cells stably transfected with human GITR
T1 sequence: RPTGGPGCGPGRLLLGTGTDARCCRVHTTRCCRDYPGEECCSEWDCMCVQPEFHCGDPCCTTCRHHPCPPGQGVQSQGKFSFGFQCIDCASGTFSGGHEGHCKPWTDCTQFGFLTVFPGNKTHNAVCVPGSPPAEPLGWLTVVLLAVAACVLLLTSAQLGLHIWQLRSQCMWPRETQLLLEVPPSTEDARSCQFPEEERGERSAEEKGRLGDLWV

T2: FAS
T2 construct: not shown: His tag, implied by the HisGrab nickel plate; The construct's exact limits are also wanting
T2 chain: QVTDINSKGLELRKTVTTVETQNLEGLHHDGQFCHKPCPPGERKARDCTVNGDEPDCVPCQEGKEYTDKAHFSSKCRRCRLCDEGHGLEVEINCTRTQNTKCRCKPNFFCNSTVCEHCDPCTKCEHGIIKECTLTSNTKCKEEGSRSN

B1: recombinant human GITR ligand (GITR-L) (ligand, UniProt Q9UNG2 52-177, looked up)
chain: ETAKEPCMAKFGPLPSKWQMASSEPPCVNKVSDWKLEILQNGLYLIYGQVAPNANYNDVAPFEVRLYKNKDMIQTLTNKSKIQNVGGTYELHVGDTIDLIFNSEHQVLKNNTYWGIILLANPQFIS
B2: MAB4 (IgG1 kappa) (antibody, V domains shown)
VH: EVQLVESGGGLVQSGGSLRLSCAASGFSLSSYGVDWVRQAPGKGLEWVGVIWGGGGTYYASSLMGRFTISRDNSKNTLYLQMNSLRAEDTAVYYCAKHAYGHDGGFAMDYWGQGTLVTVSS
VL: EIVMTQSPATLSVSPGERATLSCRASESVSSNVAWYQQRPGQAPRLLIYGASNRATGIPARFSGSGSGTDFTLTISRLEPEDFAVYYCGQSYSYPFTFGQGTKLEIKR
B3: MAB7 (IgG1 kappa) (antibody, V domains shown)
VH: B2 VH with K97R
VL: B2 VL
notes: MAB4 with the glycation site KH changed to RH
B4: MAB5 (IgG1 kappa) (antibody, V domains shown)
VH: B2 VH with V48L, A60T
VL: B2 VL

How the values were obtained:
[1] = target: T1, human GITR on cells; experiment: FACS competition on HEK293 cells stably expressing hGITR: human GITR ligand titrated first, then 4 nM MAB7 as the competitor read out with PE anti-human
Protocol: The ability of MAB to block ligand binding was assessed using HEK293 NFκB reporter parental cells and hGITR stable cells were used in competition binding assays and FACS analysis. Briefly, harvested cells were plated 1×10⁶ cells per mL, 100 μL per well to a 96 well round bottom FACS plate (Corning), then resuspended in 200 μL of cold FACS buffer (1×PBS+1% FBS-HI+0.1% sodium azide) per well. […] Plates were incubated for 1 hour on ice protected from light, cells washed, then prepared 4 nM isotype control or MAB solutions were prepared and added to appropriate wells at 100 μL per well and plates were incubated for 1 hour on ice protected from light, cells washed, then PE-conjugated goat-anti-human detection antibody (Jackson ImmunoResearch) prepared at 1:100 dilution in FACS buffer was added at 100 μL per well and plates were incubated for 30 minutes on ice protected from light. Cells were washed in FACS buffer then cells were fixed with 100 μL per well of BD CytoFix (BD Biosciences) and incubated for further 15 minutes on ice protected from light.

[2] = target: cyno GITR (cGITR) (cynomolgus monkey); experiment: Biacore
[3] = target: cyno GITR (cGITR) (cynomolgus monkey); experiment: Biacore; remark: listed apart in the source
[4] = target: T2, FAS; experiment: specificity ELISA on bacterial lysates with TNFRSF members, HisGrab nickel plate
Protocol: For the specificity ELISA, a crude cell lysate was made from bacteria expressing members of the TNFRSF family. To prevent nonspecific binding to the plate 50 μL of 5% BSA was added per mL of bacterial lysate. […] The plate was then rinsed three times with PBST, then MAB was diluted to 0.5 μg/mL in 10% FBS in PBS and 100 μL was added to each well. The plate was incubated for 1 hour at room temperature and then rinsed three times with PBST. Anti-human kappa antibody (Sigma #A7164) conjugated to HRP was diluted 1:5000 in 1:1 PBST: 10% FBS in PBS and 100 μL added to each well. The plate was incubated for 1 hour at room temperature, and then washed three times with PBST. 100 μL of SureBlue TMB substrate was added to each well and the plate was incubated for about 10 min at room temperature before stopping the reaction with 100 μL/well of 2N H₂SO₄.

Binder	IC50 (read off the curve) [1]	fold lower binding affinity for cyno GITR against human GITR [2] [fold]	Kd [3] [nM]	binding result [4]
B1	~0.2 molar ratio (Human GITR Ligand to MAB7)			
B2		2 to 3	1.78	no binding (tested: 0.5 µg/mL (not on the sheet))
B3			3.67	
B4		2 to 3	1.87	no binding (tested: 0.5 µg/mL (not on the sheet))
